Experiments:
[1] = biological target: the molecule itself; assay: single-molecule GFP photobleaching step counting (TIRF microscopy); real-time binding of GFP-tagged WRN to model replication fork immobilised via biotin-streptavidin; all bound molecules counted; no ATP; 10 mM Tris-HCl pH 8.0, 50 mM NaCl; room temperature; oligomer counted on DNA
[2] = biological target: the molecule itself; assay: single-molecule GFP photobleaching step counting (TIRF microscopy); immobilised forked DNA incubated with 24 nM GFP-tagged WRN and 1 nM RPA, unbound washed out; steps counted in the absence of ATP; only molecules with unwinding activity (Cy3-Cy5 FRET after 1 mM ATP-Mg2+) counted; room temperature

B1: GFP-tagged Werner syndrome protein (f:GFP-WRN) (enzyme)
chain: not shown
notes: Werner syndrome protein (WRN), human; cDNA encoding full-length WRN generated by RT-PCR from total RNA of HEK293T cells, subcloned into pFASTBAC1; Number of copies depends on the condition: dimer or tetramer on DNA (see measurements); also called GFP-tagged WRN; not shown: FLAG, N-terminal, kept; GFP, N-terminal, kept
stoichiometry N [1]: 4
stoichiometry N [2]: 2

From article PMC9841404, “Werner syndrome protein works as a dimer for unwinding and replication fork regression” (Nucleic Acids Research, 2022)
